# System: Escherichia coli TOP10
# Experiment: shrunken log2 fold change of peptide-encoding DNA abundance (4.5 h post-induction vs induction); higher = less antimicrobial activity (less host growth inhibition)
# Conditions: time post-induction: 4.5 h; library: site-saturation at positions 5, 18, 19, 20
# 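Further: peptides expressed intracellularly from a pBAD plasmid library in pooled LB shake-flask culture, induced with 0.3% L-arabinose, DNA abundance read by NGS, three biological replicates, DESeq2 with apeglm shrinkage.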
row,Sequence,shrunken log2 fold change
1,RRIRNRPPRLPRPRPRPEAKPRP,0.302
2,RRIRMRPPRLPRPRPRPARYPRP,0.581
3,RRIRSRPPRLPRPRPRPEVYPRP,0.104
4,RRIRPRPPRLPRPRPRPFGEPRP,0.0159
5,RRIRTRPPRLPRPRPRPSQIPRP,-0.0567
6,RRIRYRPPRLPRPRPRPWPIPRP,0.044
7,RRIRGRPPRLPRPRPRPDAIPRP,1.38
8,RRIRMRPPRLPRPRPRPWWNPRP,0.045
9,RRIRFRPPRLPRPRPRPKSDPRP,0.0639
10,RRIRDRPPRLPRPRPRPVWPPRP,0.225
11,RRIRRRPPRLPRPRPRPWYTPRP,-0.637
12,RRIRVRPPRLPRPRPRPHYCPRP,-0.186
13,RRIRRRPPRLPRPRPRPMCVPRP,-0.0364
14,RRIRTRPPRLPRPRPRPPQTPRP,0.457
15,RRIRRRPPRLPRPRPRPVRWPRP,0.825
16,RRIRTRPPRLPRPRPRPPEQPRP,0.151
17,RRIRARPPRLPRPRPRPNWCPRP,0.206
18,RRIRMRPPRLPRPRPRPGWEPRP,0.888
19,RRIRCRPPRLPRPRPRPAGGPRP,0.489
20,RRIRARPPRLPRPRPRPDEFPRP,0.331
21,RRIRGRPPRLPRPRPRPTEKPRP,0.455
22,RRIRDRPPRLPRPRPRPTWDPRP,0.629
23,RRIRHRPPRLPRPRPRPRCRPRP,0.615
24,RRIRSRPPRLPRPRPRPHIKPRP,-0.255
25,RRIRKRPPRLPRPRPRPKFHPRP,0.161

row,Sequence,shrunken log2 fold change
1,RRIRIRPPRLPRPRPRPSLMPRP,-0.246
2,RRIRERPPRLPRPRPRPIQMPRP,-0.14
3,RRIRKRPPRLPRPRPRPPNIPRP,-1.03
4,RRIRQRPPRLPRPRPRPKMFPRP,0.106
5,RRIRNRPPRLPRPRPRPWMIPRP,-0.252
6,RRIRIRPPRLPRPRPRPFVYPRP,-0.625
7,RRIRNRPPRLPRPRPRPLLYPRP,-0.588
8,RRIRQRPPRLPRPRPRPHNIPRP,-0.076
9,RRIRFRPPRLPRPRPRPHGCPRP,-0.064
10,RRIRWRPPRLPRPRPRPPHCPRP,0.754
11,RRIRPRPPRLPRPRPRPCSRPRP,0.0759
12,RRIRKRPPRLPRPRPRPMELPRP,0.159
13,RRIRCRPPRLPRPRPRPVQHPRP,-0.0893
14,RRIRLRPPRLPRPRPRPPEMPRP,1.71
15,RRIRIRPPRLPRPRPRPHFVPRP,-0.565
16,RRIRCRPPRLPRPRPRPSKYPRP,-0.635
17,RRIRARPPRLPRPRPRPGLMPRP,0.524
18,RRIRCRPPRLPRPRPRPMLFPRP,0.545
19,RRIRKRPPRLPRPRPRPRFTPRP,0.158
20,RRIRARPPRLPRPRPRPQWGPRP,0.315
21,RRIRIRPPRLPRPRPRPDTVPRP,-0.301
22,RRIRMRPPRLPRPRPRPIYDPRP,-0.265
23,RRIRIRPPRLPRPRPRPVLAPRP,-0.0133
24,RRIRTRPPRLPRPRPRPPNIPRP,-0.355
25,RRIRYRPPRLPRPRPRPCLWPRP,-0.481

row,Sequence,shrunken log2 fold change
1,RRIRPRPPRLPRPRPRPQIKPRP,-0.282
2,RRIRWRPPRLPRPRPRPWCFPRP,-0.0366
3,RRIRGRPPRLPRPRPRPLSGPRP,0.675
4,RRIRERPPRLPRPRPRPEMSPRP,0.0528
5,RRIRWRPPRLPRPRPRPARVPRP,0.413
6,RRIRNRPPRLPRPRPRPANQPRP,0.271
7,RRIRDRPPRLPRPRPRPSCCPRP,1.57
8,RRIRSRPPRLPRPRPRPYSSPRP,-0.271
9,RRIRVRPPRLPRPRPRPRNYPRP,-0.567
10,RRIRIRPPRLPRPRPRPMRIPRP,-0.0754
11,RRIRQRPPRLPRPRPRPVVYPRP,0.12
12,RRIRFRPPRLPRPRPRPFRHPRP,0.0504
13,RRIRKRPPRLPRPRPRPEQSPRP,0.94
14,RRIRDRPPRLPRPRPRPIRQPRP,0.193
15,RRIRYRPPRLPRPRPRPSLHPRP,-0.622
16,RRIRSRPPRLPRPRPRPQIQPRP,-0.118
17,RRIRGRPPRLPRPRPRPLHRPRP,0.187
18,RRIRGRPPRLPRPRPRPKAPPRP,0.855
19,RRIRARPPRLPRPRPRPCTWPRP,0.108
20,RRIRKRPPRLPRPRPRPIFEPRP,0.381
21,RRIRKRPPRLPRPRPRPNKRPRP,-0.0102
22,RRIRGRPPRLPRPRPRPRYNPRP,-0.0667
23,RRIRWRPPRLPRPRPRPQFGPRP,0.0671
24,RRIRHRPPRLPRPRPRPAGIPRP,-0.282
25,RRIRPRPPRLPRPRPRPLKSPRP,-0.157

row,Sequence,shrunken log2 fold change
1,RRIRHRPPRLPRPRPRPSIQPRP,-0.344
2,RRIRVRPPRLPRPRPRPQDFPRP,0.00129
3,RRIRMRPPRLPRPRPRPIWRPRP,0.128
4,RRIRWRPPRLPRPRPRPNTSPRP,-0.336
5,RRIRYRPPRLPRPRPRPGVEPRP,0.0346
6,RRIRCRPPRLPRPRPRPWQEPRP,-0.153
7,RRIRCRPPRLPRPRPRPFWAPRP,-0.0403
8,RRIRHRPPRLPRPRPRPTLLPRP,-0.281
9,RRIRSRPPRLPRPRPRPAQWPRP,0.595
10,RRIRVRPPRLPRPRPRPGHDPRP,-0.116
11,RRIRFRPPRLPRPRPRPASHPRP,0.0492
12,RRIRNRPPRLPRPRPRPISVPRP,-0.00409
13,RRIRLRPPRLPRPRPRPWTDPRP,-0.279
14,RRIRTRPPRLPRPRPRPETKPRP,0.00321
15,RRIRSRPPRLPRPRPRPQWDPRP,-0.235
16,RRIRLRPPRLPRPRPRPCFKPRP,-0.315
17,RRIRIRPPRLPRPRPRPEKKPRP,-0.0556
18,RRIRVRPPRLPRPRPRPKPQPRP,0.719
19,RRIRLRPPRLPRPRPRPLYPPRP,-0.12
20,RRIRMRPPRLPRPRPRPFSSPRP,0.0321
21,RRIRVRPPRLPRPRPRPHHNPRP,0.192
22,RRIRIRPPRLPRPRPRPLLHPRP,-0.221
23,RRIRFRPPRLPRPRPRPNAKPRP,-0.00228
24,RRIRFRPPRLPRPRPRPSCIPRP,-0.603
25,RRIRSRPPRLPRPRPRPHGPPRP,-0.0864

row,Sequence,shrunken log2 fold change
1,RRIRHRPPRLPRPRPRPCGFPRP,0.134
2,RRIRSRPPRLPRPRPRPWFRPRP,0.212
3,RRIRRRPPRLPRPRPRPNKSPRP,-0.0615
4,RRIRVRPPRLPRPRPRPCTPPRP,-0.13
5,RRIRHRPPRLPRPRPRPNFTPRP,-0.104
6,RRIRYRPPRLPRPRPRPTWMPRP,0.0576
7,RRIRQRPPRLPRPRPRPGMLPRP,0.105
8,RRIRVRPPRLPRPRPRPTCDPRP,-0.156
9,RRIRWRPPRLPRPRPRPIGIPRP,-0.0434
10,RRIRFRPPRLPRPRPRPRWKPRP,0.217
11,RRIRMRPPRLPRPRPRPGECPRP,-0.0159
12,RRIRWRPPRLPRPRPRPYEQPRP,-0.398
13,RRIRPRPPRLPRPRPRPYDNPRP,-0.415
14,RRIRNRPPRLPRPRPRPTAPPRP,0.517
15,RRIRIRPPRLPRPRPRPEKNPRP,-0.232
16,RRIRHRPPRLPRPRPRPAGPPRP,0.056
17,RRIRFRPPRLPRPRPRPFLAPRP,-0.486
18,RRIRGRPPRLPRPRPRPHGWPRP,0.161
19,RRIRQRPPRLPRPRPRPHNLPRP,-0.183
20,RRIRERPPRLPRPRPRPAPKPRP,0.678
21,RRIRVRPPRLPRPRPRPCGCPRP,0.0165
22,RRIRSRPPRLPRPRPRPVHKPRP,-0.151
23,RRIRPRPPRLPRPRPRPVFTPRP,-0.0534
24,RRIRKRPPRLPRPRPRPWRVPRP,0.122
25,RRIRDRPPRLPRPRPRPSLFPRP,0.205

row,Sequence,shrunken log2 fold change
1,RRIRLRPPRLPRPRPRPQQVPRP,0.107
2,RRIRLRPPRLPRPRPRPPRYPRP,0.178
3,RRIRMRPPRLPRPRPRPYGNPRP,0.081
4,RRIRTRPPRLPRPRPRPFCSPRP,0.207
5,RRIRARPPRLPRPRPRPYNKPRP,-0.731
6,RRIRVRPPRLPRPRPRPAIAPRP,0.107
7,RRIRMRPPRLPRPRPRPVICPRP,0.00711
8,RRIRKRPPRLPRPRPRPAMNPRP,-0.0724
9,RRIRHRPPRLPRPRPRPSNHPRP,-0.461
10,RRIRFRPPRLPRPRPRPHLAPRP,-0.0213
11,RRIRYRPPRLPRPRPRPNNWPRP,-0.398
12,RRIRDRPPRLPRPRPRPRQCPRP,-0.0309
13,RRIRKRPPRLPRPRPRPNLMPRP,3.86
14,RRIRRRPPRLPRPRPRPYQIPRP,0.022
15,RRIRQRPPRLPRPRPRPRGDPRP,0.346
16,RRIRIRPPRLPRPRPRPSSPPRP,-0.746
17,RRIRCRPPRLPRPRPRPFMVPRP,-0.502
18,RRIRTRPPRLPRPRPRPQLEPRP,0.341
19,RRIRDRPPRLPRPRPRPPPVPRP,0.867
20,RRIRFRPPRLPRPRPRPNLEPRP,-0.257
21,RRIRRRPPRLPRPRPRPQTFPRP,0.264
22,RRIRSRPPRLPRPRPRPHEGPRP,0.0242
23,RRIRQRPPRLPRPRPRPSCAPRP,-0.0664
24,RRIRERPPRLPRPRPRPCSDPRP,-0.5
25,RRIRWRPPRLPRPRPRPLFWPRP,0.373

# Source: the supplement of paper PMC9112550, “Optimization of the antimicrobial peptide Bac7 by deep mutational scanning” (BMC Biology, 2022)
